In patent US20260184782A1 (published 2026):

B1: hTIGIT (receptor)
chain: MMTGTIETTGNISAEKGGSIILQCHLSSTTAQVTQVNWEQQDQLLAICNADLGWHISPSFKDRVAPGPGLGLTLQSLTVNDTGEYFCIYHTYPDGTYTGRIFLEVLESSVAEHGARFQIP
TIGIT55-05
  Kd: 97.6 nM
TIGIT55-06
  Kd: 153 nM
TIGIT55-14
  Kd: 139 nM
TIGIT55-13
  Kd: 112 nM
TIGIT55-11
  Kd: 327 nM
TIGIT55-01
  Kd: 15.9 nM
